By Kd is commonly meant the equilibrium constant for the complex coming apart. The low end stands for tighter binding, the high end for weaker binding.

Assay [1] concerns the target T1, human C2 L706A (human, UniProt P06681 21-752).
T1 sequence: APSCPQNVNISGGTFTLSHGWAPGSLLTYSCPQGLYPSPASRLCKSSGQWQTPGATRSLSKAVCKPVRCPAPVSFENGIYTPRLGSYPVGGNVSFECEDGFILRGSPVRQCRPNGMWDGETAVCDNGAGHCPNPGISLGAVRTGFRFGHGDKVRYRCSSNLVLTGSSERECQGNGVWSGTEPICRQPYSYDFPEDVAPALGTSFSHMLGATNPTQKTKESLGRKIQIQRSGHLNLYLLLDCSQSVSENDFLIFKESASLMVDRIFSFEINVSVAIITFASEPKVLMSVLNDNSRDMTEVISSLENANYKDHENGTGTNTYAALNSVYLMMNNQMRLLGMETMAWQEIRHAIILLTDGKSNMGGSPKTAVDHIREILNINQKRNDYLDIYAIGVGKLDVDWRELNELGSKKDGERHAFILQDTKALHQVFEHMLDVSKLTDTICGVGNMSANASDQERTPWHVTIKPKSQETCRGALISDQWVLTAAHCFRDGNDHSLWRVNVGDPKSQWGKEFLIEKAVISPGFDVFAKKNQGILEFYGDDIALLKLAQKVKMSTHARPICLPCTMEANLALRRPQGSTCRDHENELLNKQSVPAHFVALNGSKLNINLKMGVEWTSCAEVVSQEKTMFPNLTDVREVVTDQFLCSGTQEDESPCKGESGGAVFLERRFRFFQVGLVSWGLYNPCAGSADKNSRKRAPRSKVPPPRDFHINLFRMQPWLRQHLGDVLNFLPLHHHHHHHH
Kind of assay: SPR, antibody captured, C2 as analyte.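 Also: biacore SPR at 37 °C, anti-C2 mAbs captured via goat anti-human IgG on CM5 chips, double-referenced sensorgrams fit to a 1:1 kinetic or steady-state model.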 A general note: In SPR one partner is held on a chip, and binding of the other changes the refractive index at the surface.

Assay [2] concerns the target T2, human C2 N380A (human, UniProt P06681 21-752).
T2 sequence: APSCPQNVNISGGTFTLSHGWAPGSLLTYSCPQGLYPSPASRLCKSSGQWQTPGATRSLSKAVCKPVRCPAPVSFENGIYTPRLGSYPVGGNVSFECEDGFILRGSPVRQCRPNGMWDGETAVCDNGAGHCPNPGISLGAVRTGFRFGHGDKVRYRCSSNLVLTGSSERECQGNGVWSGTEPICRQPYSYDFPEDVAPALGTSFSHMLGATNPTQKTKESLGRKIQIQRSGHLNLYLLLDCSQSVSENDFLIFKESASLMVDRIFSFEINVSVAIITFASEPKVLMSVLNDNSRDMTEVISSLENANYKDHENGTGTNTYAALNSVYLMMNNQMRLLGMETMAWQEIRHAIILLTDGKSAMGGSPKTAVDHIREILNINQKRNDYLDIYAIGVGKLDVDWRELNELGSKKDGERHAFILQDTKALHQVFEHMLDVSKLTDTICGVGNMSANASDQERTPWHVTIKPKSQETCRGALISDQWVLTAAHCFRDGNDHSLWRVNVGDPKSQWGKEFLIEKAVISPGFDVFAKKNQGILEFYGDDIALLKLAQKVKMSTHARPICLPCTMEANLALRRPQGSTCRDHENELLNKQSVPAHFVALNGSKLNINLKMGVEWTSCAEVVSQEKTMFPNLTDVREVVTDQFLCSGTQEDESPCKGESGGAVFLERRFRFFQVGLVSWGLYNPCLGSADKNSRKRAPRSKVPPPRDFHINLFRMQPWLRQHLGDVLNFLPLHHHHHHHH
Briefly: SPR, antibody captured, C2 as analyte.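 Also: biacore SPR at 37 °C, anti-C2 mAbs captured via goat anti-human IgG on CM5 chips, double-referenced sensorgrams fit to a 1:1 kinetic or steady-state model.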

Assay [3] addresses T3, human C2 V418A (human, UniProt P06681 21-752).
T3 sequence: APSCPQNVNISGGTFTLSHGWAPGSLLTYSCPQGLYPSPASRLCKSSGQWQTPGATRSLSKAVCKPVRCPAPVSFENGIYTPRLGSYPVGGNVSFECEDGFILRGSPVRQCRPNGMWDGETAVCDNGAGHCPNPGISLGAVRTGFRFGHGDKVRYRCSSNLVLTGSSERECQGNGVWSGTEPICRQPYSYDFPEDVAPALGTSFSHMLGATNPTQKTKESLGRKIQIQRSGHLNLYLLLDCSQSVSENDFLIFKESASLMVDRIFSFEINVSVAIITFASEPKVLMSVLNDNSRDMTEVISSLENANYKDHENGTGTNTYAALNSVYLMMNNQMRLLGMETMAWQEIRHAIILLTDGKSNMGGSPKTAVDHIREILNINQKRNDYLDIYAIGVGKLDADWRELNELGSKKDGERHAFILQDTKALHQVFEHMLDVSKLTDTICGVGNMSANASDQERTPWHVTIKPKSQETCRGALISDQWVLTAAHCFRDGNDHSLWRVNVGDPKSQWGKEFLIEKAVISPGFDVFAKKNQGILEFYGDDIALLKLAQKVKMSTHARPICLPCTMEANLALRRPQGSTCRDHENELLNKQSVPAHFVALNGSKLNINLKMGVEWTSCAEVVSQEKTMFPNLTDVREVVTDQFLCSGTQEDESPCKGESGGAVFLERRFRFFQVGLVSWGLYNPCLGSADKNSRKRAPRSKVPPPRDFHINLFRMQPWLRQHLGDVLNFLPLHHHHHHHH
Briefly: SPR, mAb captured, C2 mutant analyte.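 Also: Anti-C2 mAbs captured on goat anti-human IgG Biacore CM5 chips, alanine or serine C2 surface mutants flowed over at 37 °C, double-referenced sensorgrams fitted to a 1:1 binding model.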

Assay [4] concerns the target T4, human C2 R493A (human, UniProt P06681 21-752).
T4 sequence: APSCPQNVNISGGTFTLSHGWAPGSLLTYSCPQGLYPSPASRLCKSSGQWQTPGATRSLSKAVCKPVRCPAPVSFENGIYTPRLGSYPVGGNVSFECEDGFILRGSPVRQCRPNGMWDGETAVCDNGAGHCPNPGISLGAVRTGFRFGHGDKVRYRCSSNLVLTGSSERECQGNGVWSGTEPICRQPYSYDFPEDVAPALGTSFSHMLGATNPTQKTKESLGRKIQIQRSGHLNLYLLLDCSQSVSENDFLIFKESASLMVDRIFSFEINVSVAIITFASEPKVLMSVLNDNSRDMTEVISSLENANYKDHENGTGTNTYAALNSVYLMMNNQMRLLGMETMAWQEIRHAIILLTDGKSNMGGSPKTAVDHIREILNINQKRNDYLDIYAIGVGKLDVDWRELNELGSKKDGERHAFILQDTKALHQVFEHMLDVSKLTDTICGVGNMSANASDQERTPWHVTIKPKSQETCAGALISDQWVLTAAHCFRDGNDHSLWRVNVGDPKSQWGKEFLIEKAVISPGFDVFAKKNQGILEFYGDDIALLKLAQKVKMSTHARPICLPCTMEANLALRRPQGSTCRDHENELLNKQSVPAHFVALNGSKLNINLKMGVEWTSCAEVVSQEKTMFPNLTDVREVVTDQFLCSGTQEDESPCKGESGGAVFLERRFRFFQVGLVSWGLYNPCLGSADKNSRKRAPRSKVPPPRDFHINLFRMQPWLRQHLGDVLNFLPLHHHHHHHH
Briefly: SPR, mAb captured, C2 mutant analyte.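 Also: Anti-C2 mAbs captured on goat anti-human IgG Biacore CM5 chips, alanine or serine C2 surface mutants flowed over at 37 °C, double-referenced sensorgrams fitted to a 1:1 binding model.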

B1: RF16-226 (antibody, human IgG4 S228P, lambda)
heavy: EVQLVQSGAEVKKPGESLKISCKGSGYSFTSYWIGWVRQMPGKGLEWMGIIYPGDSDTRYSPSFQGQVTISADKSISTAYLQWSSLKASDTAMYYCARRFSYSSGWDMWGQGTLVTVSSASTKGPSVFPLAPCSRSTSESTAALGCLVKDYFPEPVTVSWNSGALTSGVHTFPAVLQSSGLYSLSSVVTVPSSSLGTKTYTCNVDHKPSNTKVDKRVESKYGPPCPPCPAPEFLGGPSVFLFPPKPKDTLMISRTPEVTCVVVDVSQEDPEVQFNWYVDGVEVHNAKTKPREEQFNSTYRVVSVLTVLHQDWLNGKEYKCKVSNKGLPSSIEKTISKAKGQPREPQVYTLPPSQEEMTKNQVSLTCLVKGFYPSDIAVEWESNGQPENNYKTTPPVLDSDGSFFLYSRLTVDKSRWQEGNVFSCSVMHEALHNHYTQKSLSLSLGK
light: SYELTQPPSVSVSPGQTARITCSGDALTSKYVAWYQQKSGLAPLLVIYEDTRRPSGIPAKFSGSSSGSVATLTISGAHGDDEADYYCYSTDASGHQRVFGGGTKLTVLSQPKAAPSVTLFPPSSEELQANKATLVCLISDFYPGAVTVAWKADGSPVKAGVETTKPSKQSNNKYAASSYLSLTPEQWKSHRSYSCQVTHEGSTVEKTVAPTECS
notes: pH-dependent anti-C2 antibody from a phage display library; also called WT
As to B1, the Kd in assay [1] was found to be 229 nM; in assay [2], 15.1 nM.

B2: RF16-214 (antibody, V domains shown)
VH: EVQLLESGGGLVQPGGSLRLSCAASGFTFSWYQMMWVRQAPGKGLEWVSRIYPSGGGTAYADSVKGRFTISRDNSKNTLYLQMNSLRAEDTAVYYCARDAGYGDNWGQGTLVTVSS
VL: QSALTQPPSVSVSPGQTASITCSGDKLGEKYASWYQQKAGQSPVMVIYQDRKRPSGIPERFSGSNSGNTATLTISGTQAMDEADYYCQAWDTRAVVFGGGTKLTVLG
Consider B2, for which the values for the Kd in assay [3] and in assay [4] were 15.6 nM and 25.3 nM, respectively.

The record behind these values is patent US20220332804A1 (CSL INNOVATION, published 2022).
